± gives the half width of the 95% confidence interval.
Legend:
[1] = folding stability dG unfold from trypsin proteolysis; higher = more stable
How it was run: (§1)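 How resistant each design was to proteolysis was captured as K50, inferred by Bayesian fitting of sequencing counts. Unfolding free energy was then derived relative to a sequence-predicted unfolded-state K50 and a shared folded-state K50, per protease or combined. Digestion used trypsin and chymotrypsin at 11 threefold-diluted concentrations plus a no-protease condition, on mini-proteins under 80 residues without cysteine in a PA-tagged cDNA display construct. Designs were kept only when AlphaFold2 dimer inter-PAE was above 15.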

[2] = folding stability dG unfold from chymotrypsin proteolysis; higher = more stable
How it was run: as §1

[3] = folding stability dG unfold (combined trypsin and chymotrypsin); higher = more stable
How it was run: as §1

In the case of “SAGGSMTVETSISRLPDGTYTVTVTFTLKNPDGSPVGTITIPVTMSPEVLAKTPLETVVAEAVAAASAGGSA [r2_421_JUSTAS]”, the “folding stability dG unfold” value [1] is reported as 2.44 ± 0.056 kcal/mol, the “folding stability dG unfold” value [2] is reported as 3.48 ± 0.048 kcal/mol and the “folding stability dG unfold” value [3] is reported as 3.09 ± 0.077 kcal/mol.

For “SAGGDMWMIKVEHPNGRPFQIMINPNKPEISIQFNDGETRTFPIPKDYTIEDLAKELPPGYKVEIHPMSAGG [r13_696_TrROS]”, the “folding stability dG unfold” value [1] was 2.25 ± 0.1 kcal/mol, the “folding stability dG unfold” value [2] was 2.46 ± 0.051 kcal/mol and the “folding stability dG unfold” value [3] was 2.4 ± 0.17 kcal/mol.

For “SAGAKEITAEELAEIVREFAAALPPDVKEPVTVEITVPLEDGRVLVFKVTVERSPDGVKATVEVSPGASAGG [r19_220_TrMRF]”, the “folding stability dG unfold” value [1] was 2.4 ± 0.13 kcal/mol, the “folding stability dG unfold” value [2] was 3.43 ± 0.037 kcal/mol and the “folding stability dG unfold” value [3] was 3.21 ± 0.18 kcal/mol.

With “SAGGSAGGMVKVLVNPDGGATFIFNKDGSTSTIPVPYTTLEDVKAAVEALAKEYGIEVEEIVPASAGGSAGG [r6_254_JUSTAS]” the “folding stability dG unfold” value [1] was 0.395 ± 0.085 kcal/mol, the “folding stability dG unfold” value [2] was 1.38 ± 0.12 kcal/mol and the “folding stability dG unfold” value [3] was 0.982 ± 0.15 kcal/mol.

With “SAGGSAGGEERVRLPITLEVPVPLAPVLLVSPDGSERLVPLPSVTLRITLELELTKEEWEKLLSSAGGSAGG [r6_119_TrMRF]” the “folding stability dG unfold” value [1] was 3.06 ± 0.2 kcal/mol, the “folding stability dG unfold” value [2] was 3.36 ± 0.13 kcal/mol and the “folding stability dG unfold” value [3] was 3.16 ± 0.15 kcal/mol.

With “SGVQLEWKYDPEDNKREIKISIFFPADDPEKKKQFAKVIAKEIENMFQEQGWKPKKIDIEVMRMPPGQPLSA [r9_117_TrROS]” the “folding stability dG unfold” value [1] was 0.889 ± 0.049 kcal/mol, the “folding stability dG unfold” value [2] was 1.2 ± 0.063 kcal/mol and the “folding stability dG unfold” value [3] was 1.02 ± 0.067 kcal/mol.

In the case of “SKKPDYVILIEIEVEKNENGEKTIKKKIIIYDKNGKKKLIAEEEITIEVNGIKIKIKIKIFPKGASLEELSA [r9_1113_TrROS_Hall]”, the “folding stability dG unfold” value [1] is reported as 3.51 ± 0.26 kcal/mol, the “folding stability dG unfold” value [2] is reported as 2.23 ± 0.16 kcal/mol and the “folding stability dG unfold” value [3] is reported as 2.87 ± 0.2 kcal/mol.

With “SAGMIKIEETDGKLKVTITLKADDPEEITVEMIKEELEKLGLEVAEIKITPEPNEDGQYTVTAEIVVDVSAG [r5_922_TrMRF]” the “folding stability dG unfold” value [1] was 2.99 ± 0.39 kcal/mol, the “folding stability dG unfold” value [2] was 3.06 ± 0.16 kcal/mol and the “folding stability dG unfold” value [3] was 3.08 ± 0.23 kcal/mol.

With “SAGGSAGGSAGGSPGNYREVEIEFRDPDDNGKEVKIEIWVQPGMPEEQIKEFVRELLRRSAGGSAGGSAGGS [r4_442_TrROS]” the “folding stability dG unfold” value [1] was 0.942 ± 0.18 kcal/mol, the “folding stability dG unfold” value [2] was 1.4 ± 0.19 kcal/mol and the “folding stability dG unfold” value [3] was 1.32 ± 0.25 kcal/mol.

For “SAGGSAGGSMLTIEKPMPGTTEEEALEYAEELKEKNPNYKIEVEIEKTEEGYLTVKIKLTKKESAGGSAGGS [r12_425_JUSTAS]”, the “folding stability dG unfold” value [1] was 1.31 ± 0.12 kcal/mol, the “folding stability dG unfold” value [2] was 0.879 ± 0.12 kcal/mol and the “folding stability dG unfold” value [3] was 0.972 ± 0.24 kcal/mol.

In the case of “SAGGSAGKPVLVRVKLRLEFPGTGELAEAEVVVEADSIEDALDRVLKELTLPDFKAEVLDVKAIPLSAGGSA [r2_320_TrMRF]”, the “folding stability dG unfold” value [1] is reported as 2.1 ± 0.11 kcal/mol, the “folding stability dG unfold” value [2] is reported as 2.03 ± 0.029 kcal/mol and the “folding stability dG unfold” value [3] is reported as 2.16 ± 0.13 kcal/mol.

In the case of “SAGTLTLELEVEVDGVLVRVRVEVRPGEEVEVRVEVEVRELPPEPEVEEEEKVELSEEDLERLRRLAEESAG [r5_958_TrROS_Hall]”, the “folding stability dG unfold” value [1] is reported as 2.46 ± 0.071 kcal/mol, the “folding stability dG unfold” value [2] is reported as 3.4 ± 0.086 kcal/mol and the “folding stability dG unfold” value [3] is reported as 3.05 ± 0.1 kcal/mol.

In the case of “SAGKELVLRVRLYRPVPLEEPRVEEREVVVPRKEDEPIEKVVEELLEPDWVLEVEVFDEGKLIERYYTHSAG [r5_278_TrMRF]”, the “folding stability dG unfold” value [1] is reported as 0.721 ± 0.075 kcal/mol, the “folding stability dG unfold” value [2] is reported as 1.36 ± 0.22 kcal/mol and the “folding stability dG unfold” value [3] is reported as 1.11 ± 0.2 kcal/mol.

In the case of “SKIKPGDVVTIMFPFPPGDPDQIREWAYWIARKLGPDVKVKSVEYNPNDPRYVQIEVRVPGGKITIHIMWSA [r9_1079_TrROS]”, the “folding stability dG unfold” value [1] is reported as 2.7 ± 0.06 kcal/mol, the “folding stability dG unfold” value [2] is reported as 4.25 ± 0.076 kcal/mol and the “folding stability dG unfold” value [3] is reported as 3.7 ± 0.12 kcal/mol.

For “SAGMKIKIVKIEKEEDGTIRVELEITDPNGNKYRVEAEIDLKDPNKIKIKVINEDTGEEFEIELTIKKPSAG [r5_345_TrROS_Hall]”, the “folding stability dG unfold” value [1] was 3.6 ± 0.23 kcal/mol, the “folding stability dG unfold” value [2] was 5.19 ± 0.2 kcal/mol and the “folding stability dG unfold” value [3] was 5.24 ± 0.35 kcal/mol.

With “SAGGKTIMHMYMNPNGWFIRAKIKLDPDGKWKITDVEIYPMEMKYEDPNGKPREMPMFMIKIRIKPDSAGGS [r8_270_TrROS]” the “folding stability dG unfold” value [1] was 3.03 ± 0.084 kcal/mol, the “folding stability dG unfold” value [2] was 4.26 ± 0.046 kcal/mol and the “folding stability dG unfold” value [3] was 3.78 ± 0.092 kcal/mol.

For “SAFNIEIEEVDPNEIYIKIDATPEQLEEIAEDIMKNFPGYKVKWEWDDEQGKIWFRIRPVPPPPPEDQNSAG [r14_600_TrROS]”, the “folding stability dG unfold” value [1] was 1.14 ± 0.1 kcal/mol, the “folding stability dG unfold” value [2] was 1.97 ± 0.13 kcal/mol and the “folding stability dG unfold” value [3] was 1.96 ± 0.29 kcal/mol.

For “SAGSSLNILLELETPEEAEKEAARIKEEIPKKGISVTVTIVSKEELEKLLKENVIELPNGSLKLVLFPSAGG [r19_187_JUSTAS]”, the “folding stability dG unfold” value [1] was 0.201 ± 0.11 kcal/mol, the “folding stability dG unfold” value [2] was 0.138 ± 0.19 kcal/mol and the “folding stability dG unfold” value [3] was 0.218 ± 0.25 kcal/mol.

For “SAMVVIKPEGDKIVVEITLPDGSTKVIELPEVEKIEIKGDTLIITDPKTGKKIIPENTTVSNPKIEPAKSAG [r14_83_JUSTAS]”, the “folding stability dG unfold” value [1] was -0.167 ± 0.065 kcal/mol, the “folding stability dG unfold” value [2] was -0.0623 ± 0.064 kcal/mol and the “folding stability dG unfold” value [3] was 0.0698 ± 0.14 kcal/mol.

In the case of “SAGMKITISYDEAKGIATVTLYEERPVETPNGPVTLRRKVATVTIPYTSLEEAKKQAEEAAKALLEKLSSAG [r5_956_JUSTAS]”, the “folding stability dG unfold” value [1] is reported as 5.11 ± 0.14 kcal/mol, the “folding stability dG unfold” value [2] is reported as 5.036 ± 0.033 kcal/mol and the “folding stability dG unfold” value [3] is reported as 5.06 ± 0.084 kcal/mol.

For “SAGGSANLPPGQPKIITITIPLGEEVRNPDGEPMTPEDIADNFQERFGNIEVEKSPNGWLEVTFWLSAGGSA [r15_645_TrROS]”, the “folding stability dG unfold” value [1] was 1.3 ± 0.06 kcal/mol, the “folding stability dG unfold” value [2] was 0.637 ± 0.15 kcal/mol and the “folding stability dG unfold” value [3] was 1.18 ± 0.19 kcal/mol.

— the supplement of paper PMC12764529
